This note sets out measurements from publication PMC3730723, “A Network of HMG-box Transcription Factors Regulates Sexual Cycle in the Fungus Podospora anserina”.

The labels stand for the following.
T1: PaHMG5 (HMG5His) (Podospora anserina, UniProt B2AM17 1-559)
T1 sequence: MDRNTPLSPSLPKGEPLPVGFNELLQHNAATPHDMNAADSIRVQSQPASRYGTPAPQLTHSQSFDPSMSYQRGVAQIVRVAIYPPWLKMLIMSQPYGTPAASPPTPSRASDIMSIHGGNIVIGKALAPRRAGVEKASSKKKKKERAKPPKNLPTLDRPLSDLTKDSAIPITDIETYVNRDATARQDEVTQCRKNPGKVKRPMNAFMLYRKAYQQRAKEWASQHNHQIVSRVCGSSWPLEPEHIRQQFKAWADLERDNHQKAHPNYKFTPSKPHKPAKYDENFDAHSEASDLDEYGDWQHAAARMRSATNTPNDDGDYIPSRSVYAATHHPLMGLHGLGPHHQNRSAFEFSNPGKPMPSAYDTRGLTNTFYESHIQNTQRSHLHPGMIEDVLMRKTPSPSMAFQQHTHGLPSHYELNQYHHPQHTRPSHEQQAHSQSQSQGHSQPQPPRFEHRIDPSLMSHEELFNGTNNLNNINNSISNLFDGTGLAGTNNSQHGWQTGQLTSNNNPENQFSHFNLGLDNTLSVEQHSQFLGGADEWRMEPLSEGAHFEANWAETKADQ

B1: KEF1 (PaHMG9) probe (dsDNA)
DNA 1: GATCGTAGCTATAGACAAAGAAAGCAACAGATAG
DNA 2: GCTATCTGTTGCTTTCTTTGTCTATAGCTACGAT
B2: FMR1 probe (dsDNA)
DNA 1: GTGCAGGATAGCCAACAAAGAAATGACTGCCACG
DNA 2: GCGTGGCAGTCATTTCTTTGTTGGCTATCCTGCA
B3: FPR1 probe (dsDNA)
DNA 1: GGTGAAGGTGAATAACAAAGAAATACACTGACGG
DNA 2: GCCGTCAGTGTATTTCTTTGTTATTCACCTTCAC
B4: mtHMG1 probe (dsDNA)
DNA 1: GGAGGGCATCTTCAACAAAGAATCTCGGCAAATA
DNA 2: GTATTTGCCGAGATTCTTTGTTGAAGATGCCCTC
B5: PaHMG8 probe (dsDNA)
DNA 1: GTGCAAACGCGGGGACAAAGAAAAAGTCTGGTGC
DNA 2: GGCACCAGACTTTTTCTTTGTCCCCGCGTTTGCA
B6: PaHMG5 probe (dsDNA)
DNA 1: GTAGAGAAGCCGGAACAAAGAAAGGAACAAGCAG
DNA 2: GCTGCTTGTTCCTTTCTTTGTTCCGGCTTCTCTA

The series deals with T1, PaHMG5 (HMG5His). Kind of series: EMSA; 20 mM Tris pH 9.0, 500 mM NaCl, 5 mM beta-mercaptoethanol, 5 mM MgCl2, 5% glycerol, 1.25 ug poly(dI-dC), 11 ul, on ice; 6% gel in 0.25x TBE. Conditions: protein: recombinant; tags: C-terminal His6; label: 5'-32P; 33 bp duplex, 1 nt 5' G overhang on each strand. In general terms: A gel shift assay detects complexes by their altered migration in electrophoresis.
B1: the binding result is given as “binds”.

B2: the binding result is “binds”.

For the molecule B3, the binding result is “binds”.

As to B4, the binding result is given as “binds”.

Regarding B5, the binding result is recorded as “binds”.

With B6, the binding result was “binds”.
